Experimental data taken from publication PMC8145704, “Conformational Plasticity of Hepatitis B Core Protein Spikes Promotes Peptide Binding Independent of the Secretion Phenotype” (Microorganisms, 2021).

Molecular target: T1, WT-HBc capsids (hepatitis B core protein, genotype D; strain ayw; GenBank: V01460.1) (Hepatitis B virus (genotype D; strain ayw)), P03146
T1 chain: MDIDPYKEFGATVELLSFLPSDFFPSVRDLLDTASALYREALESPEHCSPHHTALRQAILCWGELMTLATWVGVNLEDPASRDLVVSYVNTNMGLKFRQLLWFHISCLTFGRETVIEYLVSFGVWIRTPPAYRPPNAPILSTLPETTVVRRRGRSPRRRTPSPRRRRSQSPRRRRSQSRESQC
Test: negative-staining electron microscopy
Conditions: remark: other sources report otherwise

B1: WT-HBc capsids (hepatitis B core protein, genotype D; strain ayw; GenBank: V01460.1), P03146 1-183 (natural protein)
chain: MDIDPYKEFGATVELLSFLPSDFFPSVRDLLDTASALYREALESPEHCSPHHTALRQAILCWGELMTLATWVGVNLEDPASRDLVVSYVNTNMGLKFRQLLWFHISCLTFGRETVIEYLVSFGVWIRTPPAYRPPNAPILSTLPETTVVRRRGRSPRRRTPSPRRRRSQSPRRRRSQSRESQC
**Q.** With B1 as the binder, how does the stoichiometry N (subunits per capsid) read?
**A.** The stoichiometry N (subunits per capsid) was 240.
